B1: Serine/threonine-protein kinase D1 (Mus musculus), Q62101 (parent)
chain: MSVPPLLRPPSPLLPAAAAVAAAAAALVPGSGPAPFPAPGAAPAGGISFHLQIGLSREPVLLLQDSSGDYSLAHVREMACSIVDQKFPECGFYGLYDKILLFRHDPASDNILQLVKIASDIQEGDLIEVVLSASATFEDFQIRPHALFVHSYRAPAFCDHCGEMLWGLVRQGLKCEGCGLNYHKRCAFKIPNNCSGVRRRRLSNVSLTGLGTVRTASAEFSTSVPDEPLLSPVSPGFEQKSPSESFIGREKRSNSQSYIGRPIQLDKLLMSKVKVPHTFVIHSYTRPTVCQFCKKLLKGLFRQGLQCKDCRFNCHKRCAPKVPNNCLGEVTINGELLSPGAESDVVMEEGSDDNDSERNSGLMDDMDEAMVQDTEMALAEGQSGGAEMQDPDADQEDSNRTISPSTSNNIPLMRVVQSVKHTKRRSSTVMKEGWMVHYTSKDTLRKRHYWRLDSKCITLFQNDTGSRYYKEIPLSEILCLEPAKPSALTPVGATPHCFEITTANVVYYVGENVVNPSSSPPNNSVLPSGIGPDVARMWEVAIQHALMPVIPKGSSVGSGSNSHKDISVSISVSNCQIQENVDISTVYQIFPDEVLGSGQFGIVYGGKHRKTGRDVAIKIIDKLRFPTKQESQLRNEVAILQNLHHPGVVNLECMFETPERVFVVMEKLHGDMLEMILSSEKGRLPEHITKFLITQILVALRHLHFKNIVHCDLKPENVLLASADPFPQVKLCDFGFARIIGEKSFRRSVVGTPAYLAPEVLRNKGYNRSLDMWSVGVIIYVSLSGTFPFNEDEDIHDQIQNAAFMYPPNPWKEISHEAIDLINNLLQVKMRKRYSVDKTLSHPWLQDYQTWLDLRELECRIGERYITHESDDSRWEQYAGEQGLQYPAHLISLSASHSDSPEAEEREMKALSERVSIL

Variants of: B1
Settings: with itb3_human ITGB3, P05106
Sequence of itb3_human ITGB3, P05106 (P05106 whole entry): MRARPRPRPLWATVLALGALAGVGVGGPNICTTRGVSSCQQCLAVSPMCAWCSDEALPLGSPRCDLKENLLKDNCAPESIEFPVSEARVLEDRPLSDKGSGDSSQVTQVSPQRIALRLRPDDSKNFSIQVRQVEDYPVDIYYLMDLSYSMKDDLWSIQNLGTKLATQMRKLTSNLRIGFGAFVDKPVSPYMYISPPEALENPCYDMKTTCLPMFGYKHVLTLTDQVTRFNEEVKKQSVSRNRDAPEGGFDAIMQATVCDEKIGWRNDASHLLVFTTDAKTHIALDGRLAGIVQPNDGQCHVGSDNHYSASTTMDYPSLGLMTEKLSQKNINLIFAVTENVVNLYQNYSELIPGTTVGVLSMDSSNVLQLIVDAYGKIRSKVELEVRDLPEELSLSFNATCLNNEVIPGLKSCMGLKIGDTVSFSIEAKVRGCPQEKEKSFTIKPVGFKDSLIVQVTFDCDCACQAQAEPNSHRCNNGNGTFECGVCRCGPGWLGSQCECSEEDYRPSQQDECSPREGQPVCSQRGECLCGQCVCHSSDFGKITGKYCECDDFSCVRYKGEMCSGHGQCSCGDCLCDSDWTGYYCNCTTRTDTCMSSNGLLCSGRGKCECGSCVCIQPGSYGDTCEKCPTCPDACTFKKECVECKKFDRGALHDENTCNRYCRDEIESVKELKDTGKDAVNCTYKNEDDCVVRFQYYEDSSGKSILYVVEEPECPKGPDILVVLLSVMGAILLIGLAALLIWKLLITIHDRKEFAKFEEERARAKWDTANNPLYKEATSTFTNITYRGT

Row | effect of a mutation on the interaction | Variant
1 | decreasing interaction | S916A

Variants of: B1
Settings: with itb3_human ITGB3, P05106
Remark: another data set of the same source

Row | effect of a mutation on the interaction | Variant
2 | disrupting interaction | S916A

From IntAct's records for PubMed 17485491
